Data from patent CN111378037A.

Target: Human IL33-his (Human IL33 (NP_254274.1) Ser112-Thr270 with a C-terminal 6-histidine tag, expressed in E. coli) (human) (UniProt O95760)
Test: cell-based or functional assay

UniProt O95760, sequence (O95760 other isoform, or with tags, fused parts or gaps limits assumed, form in doubt): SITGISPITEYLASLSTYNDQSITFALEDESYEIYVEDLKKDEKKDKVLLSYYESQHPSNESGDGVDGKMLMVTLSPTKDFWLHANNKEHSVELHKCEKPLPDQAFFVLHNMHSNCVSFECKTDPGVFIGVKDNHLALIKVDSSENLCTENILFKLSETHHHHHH

对照抗体 ANB020 (antibody) showed an IC50 of inhibition of IL-5 production by KU812 cells stimulated with IL33 of 0.51 µg/mL.
